Measured values taken from article PMC5986797, “Laminin heparin-binding peptides bind to several growth factors and enhance diabetic wound healing” (Nature Communications, 2018).

T1: recombinant human syndecan-1 (human, UniProt P18827 23-254)
T1 construct: syndecan-1, human, recombinant; probably the extracellular domain; source: bought: SinoBiological
T1 sequence (looked up): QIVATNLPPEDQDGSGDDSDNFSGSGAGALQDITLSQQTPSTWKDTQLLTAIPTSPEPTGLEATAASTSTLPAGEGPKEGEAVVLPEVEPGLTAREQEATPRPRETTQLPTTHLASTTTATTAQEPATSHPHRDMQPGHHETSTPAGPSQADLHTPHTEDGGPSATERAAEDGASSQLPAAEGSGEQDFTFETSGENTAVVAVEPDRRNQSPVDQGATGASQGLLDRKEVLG

T2: recombinant human syndecan-4 (human, UniProt P31431 19-145)
T2 construct: syndecan-4, human, recombinant; probably the extracellular domain; source: bought: SinoBiological
T2 sequence (looked up): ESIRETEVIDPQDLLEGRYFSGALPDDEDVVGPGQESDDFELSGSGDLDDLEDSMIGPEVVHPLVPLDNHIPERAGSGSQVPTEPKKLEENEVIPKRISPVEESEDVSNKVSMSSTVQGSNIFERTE

T3: recombinant laminin LAMA3_(2928–3150) protein (human, UniProt Q16787 2928-3150)
T3 construct: laminin subunit alpha-3, human, LG domain Ser2928-Cys3150 (linker domain and LG4 domain); also called laminin alpha 3 LG domain recombinant protein; source: HEK-293F, transfected, purified from culture medium (HisTrap, size-exclusion chromatography)
T3 sequence (looked up): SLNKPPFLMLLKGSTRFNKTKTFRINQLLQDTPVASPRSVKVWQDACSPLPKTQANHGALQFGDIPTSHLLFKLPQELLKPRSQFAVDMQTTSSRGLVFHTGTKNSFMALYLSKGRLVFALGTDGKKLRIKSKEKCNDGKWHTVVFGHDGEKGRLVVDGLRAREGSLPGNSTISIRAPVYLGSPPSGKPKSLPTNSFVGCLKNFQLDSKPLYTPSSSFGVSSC

B1: placental growth factor (PlGF)-2 (ligand, human, UniProt P49763-3 19-170, looked up)
chain: LPAVPPQQWALSAGNGSSEVEVVPFQEVWGRSYCRALERLVDVVSEYPSEVEHMFSPSCVSLLRCTGCCGDENLHCVPVETANVTMQLLKIRSGDRPSYVELTFSQHVRCECRPLREKMKPERRRPKGRGKRRREKQRPTDCHLCGDAVPRR
notes: placenta growth factor, form PlGF-2, human, bought in its mature form; source: bought: PeproTech; produced in Escherichia coli

Tests used:
Conditions in all cases: both partners purified
[1] = target: T4, platelet-derived growth factor PDGF-BB (human, UniProt P01127 82-190); assay: ELISA; plates coated with laminin peptide (10 µg/mL by the legend, 1 μg/mL by the methods); 1 μg/mL GF added; bound GF detected with an antibody for each GF; BSA-coated wells as control
T4 construct: platelet-derived growth factor subunit B, human, bought in its mature form; a homodimer by its name; source: bought: PeproTech; produced in Escherichia coli
T4 sequence (P01127 82-190): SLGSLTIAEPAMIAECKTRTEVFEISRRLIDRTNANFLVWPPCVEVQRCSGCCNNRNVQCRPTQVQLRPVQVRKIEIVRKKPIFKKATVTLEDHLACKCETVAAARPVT

[2] = target: B1; assay: as above
FGF-2 = target: T5, FGF-2 (human, UniProt P09038 143-288); assay: as above
T5 construct: fibroblast growth factor 2, human, bought in its mature form; source: bought: PeproTech; produced in Escherichia coli
T5 sequence (P09038 143-288): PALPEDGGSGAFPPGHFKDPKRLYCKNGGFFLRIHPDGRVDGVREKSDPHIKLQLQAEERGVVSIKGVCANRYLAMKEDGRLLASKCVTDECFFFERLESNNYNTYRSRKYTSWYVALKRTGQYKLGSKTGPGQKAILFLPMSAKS

[3] = target: T6, recombinant human syndecan-2 (human, UniProt P34741 19-144); assay: ELISA; plates coated with laminin peptide (10 µg/mL by the legend, 1 μg/mL by the methods); 1 μg/mL His-tagged syndecan added; detected with anti-histidine tag antibody; BSA-coated wells as control
T6 construct: syndecan-2, human, recombinant; probably the extracellular domain; source: bought: SinoBiological
T6 sequence (P34741 19-144): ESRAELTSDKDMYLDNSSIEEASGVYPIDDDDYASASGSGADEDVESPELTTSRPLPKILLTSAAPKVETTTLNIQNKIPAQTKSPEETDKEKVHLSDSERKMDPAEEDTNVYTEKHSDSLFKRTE

[4] = target: T1, recombinant human syndecan-1; assay: as above
[5] = target: T2, recombinant human syndecan-4; assay: as above
[6] = target: T7, recombinant human laminin-211 (human, UniProt P24043 23-3122; P07942 22-1786; P11047 34-1609); assay: ELISA; plates coated with 50 nM GF or chemokine in PBS; 10 nM laminin isoform in PBS added; bound laminin detected with anti-LAMC1 or anti-LAMA3 polyclonal antibody; A450 signals greater than 0.1 taken as binding; BSA-coated wells as control
T7 construct: laminin subunit alpha-2, human; chain told by the isoform's name; laminin subunit beta-1, human; laminin subunit gamma-1, human; source: bought: BioLamina (recombinant human, >95% purity); copies: + +

[7] = target: T8, recombinant human laminin-521 (human, UniProt O15230 36-3695; P55268 33-1798; P11047 34-1609); assay: as above
T8 construct: laminin subunit alpha-5, human; chain told by the isoform's name; laminin subunit beta-2, human; laminin subunit gamma-1, human; also called laminin isoform-521; source: bought: BioLamina (recombinant human, >95% purity); copies: + +

[8] = target: T9, recombinant human laminin-511 (human, UniProt O15230 36-3695; P07942 22-1786; P11047 34-1609); assay: as above
T9 construct: laminin subunit alpha-5, human; chain told by the isoform's name; laminin subunit beta-1, human; laminin subunit gamma-1, human; source: bought: BioLamina (recombinant human, >95% purity); copies: + +

[9] = target: T10, recombinant human laminin-111 (human, UniProt P25391 18-3075; P07942 22-1786; P11047 34-1609); assay: as above
T10 construct: laminin subunit alpha-1, human; chain told by the isoform's name; laminin subunit beta-1, human; laminin subunit gamma-1, human; source: bought: BioLamina (recombinant human, >95% purity); copies: + +

[10] = target: T7, recombinant human laminin-211; assay: ELISA; plates coated with 10 μg/mL laminin isoform; 1 μg/mL GF for 60 min at RT in the absence or presence of 10 μM heparin; bound GF detected with an antibody for each GF
[11] = target: T10, recombinant human laminin-111; assay: as above
[12] = target: T8, recombinant human laminin-521; assay: SPR; laminin-521 immobilised by amine coupling on a C1 chip (~2000 RU); GF flown at 20 μL/min in 0.01 M HEPES pH 7.4, 0.15 M NaCl, 0.005% surfactant P20; Langmuir binding kinetics
[13] = target: T3, recombinant laminin LAMA3_(2928–3150) …; assay: ELISA; plates coated with 1 μg/mL recombinant laminin LG domain; 1 μg/mL GF added; bound GF detected with an antibody for each GF; BSA-coated wells as control

Binder	binding result [2]	binding result (FGF-2)	binding result [6]	binding result [7]	binding result [8]	binding result [9]	also measured
RQRSRPGRWHKVSVRWEKNR (peptide, UniProt O15230 3417-3436, looked up, laminin subunit alpha-5, human, residues 3417-3436; source: synthetic peptide (Genscript)) [laminin peptide LAMA5_(3417–3436)]	binds	binds					binding result [1]: binds; binding result [3]: binds; binding result [4]: binds; binding result [5]: binds
FGF-18 (ligand, UniProt O76093 28-207, looked up, fibroblast growth factor 18, bought in its mature form; source: bought: PeproTech; produced in Escherichia coli) EENVDFRIHVENQTRARDDVSRKQLRLYQLYSRTSGKHIQVLGRRISARGEDGDKYAQLLVETDTFGSQVRIKGKETEFYLCMNRKGKLVGKPDGTSKECVFIEKVLENNYTALMSAKYSGWYVGFTKKGRPRKGPKTRENQQDVHFMKRYPKGQPELQKPFKYTTVTKRSRRIRPTHPA			binds	binds	binds	binds	
BMP-3 (ligand, UniProt P12645 363-472, looked up, bone morphogenetic protein 3, bought in its mature form; source: bought: PeproTech; produced in Escherichia coli) QWIEPRNCARRYLKVDFADIGWSEWIISPKSFDAYYCSGACQFPMPKSLKPSNHATIQSIVRAVGVVPGIPEPCCVPEKMSSLSILFFDENKNVVLKVYPNMTVESCACR			binds	binds	binds	binds	
FGF-7 (ligand, UniProt P21781 32-194, looked up, fibroblast growth factor 7, bought in its mature form; source: bought: PeproTech; produced in Escherichia coli) CNDMTPEQMATNVNCSSPERHTRSYDYMEGGDIRVRRLFCRTQWYLRIDKRGKVKGTQEMKNNYNIMEIRTVAVGIVAIKGVESEFYLAMNKEGKLYAKKECNEDCNFKELILENHYNTYASAKWTHNGGEMFVALNQKGIPVRGKKTKKEQKTAHFLPMAIT			binds	binds	binds	binds	
FGF-10 (ligand, UniProt O15520 38-208, looked up, fibroblast growth factor 10, bought in its mature form; source: bought: PeproTech; produced in Escherichia coli) QALGQDMVSPEATNSSSSSFSSPSSAGRHVRSYNHLQGDVRWRKLFSFTKYFLKIEKNGKVSGTKKENCPYSILEITSVEIGVVAVKAINSNYYLAMNKKGKLYGSKEFNNDCKLKERIEENGYNTYASFNWQHNGRQMYVALNGKGAPRRGQKTRRKNTSAHFLPMVVHS			binds	binds	binds	binds	
BMP-2 (ligand, UniProt P12643 283-396, looked up, bone morphogenetic protein 2, bought in its mature form; source: bought: PeproTech; produced in Escherichia coli) QAKHKQRKRLKSSCKRHPLYVDFSDVGWNDWIVAPPGYHAFYCHGECPFPLADHLNSTNHAIVQTLVNSVNSKIPKACCVPTELSAISMLYLDENEKVVLKNYQDMVVEGCGCR			binds	binds	binds	binds	
TLPDVGLELEVR (peptide, UniProt O15230 3539-3550, looked up, laminin subunit alpha-5, human, residues 3539-3550; source: synthetic peptide (Genscript)) [laminin peptide LAMA5_(3539–3550)]	binds	binds					binding result [1]: binds
TPGLGPRGLQATARKASRRSRQPARHPACML (peptide, UniProt O15230 3300-3330, looked up, laminin subunit alpha-5, human, residues 3300-3330, from the LG3-LG4 linker; source: synthetic peptide (Genscript)) [laminin peptide LAMA5_(3300–3330)]	binds						binding result [3]: binds; binding result [4]: binds; binding result [5]: binds
B1							binding result [10]: binds; binding result [11]: binds; Kd [12]: 12.9 nM; binding result [13]: binds
RLVFALGTDGKKLRIKSKEKCNDGK (peptide, UniProt Q16787 3043-3067, looked up, laminin subunit alpha-3, human, residues 3043-3067; also called laminin HBD peptide; source: synthetic peptide (Genscript)) [laminin peptide LAMA3_(3043–3067)]	binds	binds					binding result [1]: binds; binding result [3]: binds; binding result [4]: binds; binding result [5]: binds
PPFLMLLKGSTRFNKTKTFR (peptide, UniProt Q16787 2932-2951, looked up, laminin subunit alpha-3, human, residues 2932-2951, from the LG3-LG4 linker; source: synthetic peptide (Genscript)) [laminin peptide LAMA3_(2932–2951)]		binds					
NT-3 (ligand, UniProt P20783 139-257, looked up, neurotrophin-3, bought in its mature form; also called neurotrophin NT-3; source: bought: PeproTech; produced in Escherichia coli) YAEHKSHRGEYSVCDSESLWVTDKSSAIDIRGHQVTVLGEIKTGNSPVKQYFYETRCKEARPVKNGCRGIDDKHWNSQCKTSQTYVRALTSENNKLVGWRWIRIDTSCVCALSRKIGRT			binds	binds	binds	binds	
